Experimental data taken from PMC2855743 (Journal of molecular biology, 2010).
Where a chain is given by its changes, count along the chain named. Numbers in names are those of the source. Like-named read-outs stand apart in the source and are kept apart here.

T1: ComAC (ComA C-terminal DNA-binding domain) (Bacillus subtilis, UniProt P14204 146-214)
T1 sequence: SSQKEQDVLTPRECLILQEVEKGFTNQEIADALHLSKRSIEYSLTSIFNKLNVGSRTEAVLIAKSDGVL

B1: Consensus RE3 (dsDNA)
DNA 1: TTTCGGCATCCCGCATGAAACTTTGCGG
DNA 2: CCGCAAAGTTTCATGCGGGATGCCGAAA
B2: Wild type srfA (dsDNA)
DNA 1: TTTCGGCATCCCGCATGAAACTTTTCAC
DNA 2: GTGAAAAGTTTCATGCGGGATGCCGAAA
B3: Full-length competence protein A (ComAFL) (natural protein, Bacillus subtilis, UniProt P14204 1-214, looked up)
chain: MKKILVIDDHPAVMEGTKTILETDSNLSVDCLSPEPSEQFIKQHDFSSYDLILMDLNLGGEVNGMELSKQILQENPHCKIIVYTGYEVEDYFEEAIRAGLHGAISKTESKEKITQYIYHVLNGEILVDFAYFKQLMTQQKTKPAPSSQKEQDVLTPRECLILQEVEKGFTNQEIADALHLSKRSIEYSLTSIFNKLNVGSRTEAVLIAKSDGVL
B4: Consensus RE1-RE3 (dsDNA)
DNA 1: TTGCGGCATCCCGCAAGAAACTTTGCGG
DNA 2: CCGCAAAGTTTCTTGCGGGATGCCGCAA
B5: N-terminal domain of competence protein A (ComAN, residues 1-126) (domain or fragment, Bacillus subtilis, UniProt P14204 1-126, looked up)
chain: MKKILVIDDHPAVMEGTKTILETDSNLSVDCLSPEPSEQFIKQHDFSSYDLILMDLNLGGEVNGMELSKQILQENPHCKIIVYTGYEVEDYFEEAIRAGLHGAISKTESKEKITQYIYHVLNGEIL
B6: N-terminal domain of competence protein A with asparagine at position 55 (ComAN-D55N, residues 1-126) (domain or fragment, Bacillus subtilis, UniProt P14204 1-126, looked up)
chain: B5 chain with D55N

Assays:
[1] = molecular target: T1, ComAC (ComA C-terminal DNA-binding …); assay: SPR
[2] = molecular target: the molecule itself; assay: SEC
[3] = molecular target: T1, ComAC (ComA C-terminal DNA-binding …); assay: SPR; remark: listed apart in the source

Row | Binder | Kd [1] | stoichiometry N [2] | further results
1 | B1 | 4.94 nM |  | 
2 | B2 | 9.59 nM |  | 
3 | B3 |  | 2 | 
4 | B4 |  |  | Kd [3]: 11.3 nM
5 | B5 |  | 2 | 
6 | B6 |  | 2 | 
